Laboratory results as given in patent publication US12539335B2, “Tricyclic polypeptide conjugated drug and use thereof” (CONJUSTAR (ZHUHAI) BIOLOGICS CO., LTD., priority 2021, dated 2026).
Where a name gives a salt, the structure may show the parent alone. Starred links: 1 amine or outer side, 2 acyl side, 3 side chain; linkers in the order of their positions; H or OH if unused. Positions of bridges follow the written chain, without caps; N, C: chain ends. Non-standard residues stand in square brackets, D forms with d. Residues, ends and D or L forms follow the SMILES beside them. Chains are numbered I, II in the order given. *: point of attachment. TATA = O=C(CC[*:1])N1CN(C(=O)CC[*:2])CN(C(=O)CC[*:3])C1; Dolaproine = CO[C@@H]([C@@H]1CCCN1)[C@@H](C)C(=O)O; Dil = CC[C@H](C)[C@H](NC)[C@@H](CC(=O)O)OC; 1Nal = N[C@@H](Cc1cccc2ccccc12)C(=O)O; X2 = O=C(CCCC(=O)[*:2])NCCC(=O)[*:1]; PABC = O=C(OCc1ccc(N[*:1])cc1)[*:2]; X1 = C[C@@H](N*)[C@@H](O)c1ccccc1; Hyp = O=C(O)[C@@H]1C[C@@H](O)CN1; hArg = N=C(N)NCCCC[C@H](N)C(=O)O; Cit = NC(=O)NCCC[C@H](N)C(=O)O; Pen = CC(C)(S)[C@H](N)C(=O)O; NMeV = CN[C@H](C(=O)O)C(C)C; Sar = CNCC(=O)O

Assays:
[1] = Metabolic stability in hepatocytes, Cynomolgus macaques; assay type: in vitro ADME; settings: cynomolgus macaque, hepatocytes (cryopreserved, suspension), 0.5×10^6 cells/mL
Description: (§1) Test Example 7: Metabolic Stability of the Compounds of the Present Invention in Hepatocytes from Mice, Rats, Cynomolgus Macaques, and Humans
(§2) To investigate the metabolic stability of the compounds of the present invention in hepatocytes from mice, rats, Cynomolgus macaques, and humans.
(§3) Incubations were performed in 96-well plates using an external extraction method. Several 96-well sample precipitation plates, designated T0, T15, T30, T60, T90, TO-MC, T90-MC, and blank matrix, were prepared, respectively. The recovery culture medium and incubation culture medium were removed in advance and placed in a 37° C. water bath for preheating. […]
(§4) At the end of the incubation at the corresponding time point, the incubation plates were removed, from which 25 μL of a compound mixture with the cells and a control compound mixture with the cells were removed and added to sample plates containing 125 μL of stop buffer, respectively. […] All samples were mixed uniformly and then analyzed by the LC-MS/MS method.
(§5) The concentration of the compound to be tested and the concentration of the control in the sample were semi-quantitatively determined by the liquid chromatography-tandem mass spectrometry (LC-MS/MS) method without a standard curve and quality control sample. […]

[2] = Stability in plasma, humans; assay type: in vitro ADME; settings: human, 37° C.
Description: Test Example 9: Stability Analysis of the Compounds of the Present Invention in Plasma from Different Species
To test the stability of the compounds of the present invention in plasma from SD rats, Cynomolgus macaques, and humans.
The corresponding incubation plates, including T0, T10, T30, T60, T120, and T240 incubation plates, were added with a 2 μL working solution of the compound to be tested (100 μM). Three parallel wells were prepared for each sample. Then, 98 μL of blank plasma from SD rats, Cynomolgus macaques, and humans was added to the corresponding incubation plates to which the working solution had been added. All samples were incubated in a 37° C. water bath. […] At the end of each incubation time point, the corresponding incubation plate was removed, added with stop buffer, precipitated, and centrifuged for 20 minutes. Then, 150 μL of the supernatant was analyzed by the LC-MS/MS method. The concentration of the compound to be tested in the sample was semi-quantitatively determined by the liquid chromatography-tandem mass spectrometry (LC-MS/MS) method.

[3] = Metabolic stability in hepatocytes, SD rats; assay type: in vitro ADME; settings: Sprague-Dawley (SD), rat, hepatocytes (cryopreserved, suspension), 0.5×10^6 cells/mL
Description: as §1, §2, §3, §4, §5

[4] = Metabolic stability in kidney S9, SD rats; assay type: in vitro ADME; settings: Sprague-Dawley (SD), rat
Description: Test Example 8: Metabolic Stability of the Compounds of the Present Invention in Kidney S9 from Mice, Rats, Cynomolgus Macaques, and Humans
To investigate the metabolic stability of the compounds of the present invention in kidney S9 from mice, rats, Cynomolgus macaques, and humans.
Materials: Kidney S9 from CD-1 mice, SD rats, Cynomolgus macaques, and humans were purchased from BioIVT or XenoTech LLC and stored in a −80° C. refrigerator.
Experimental procedure: Eight 96-well plates, designated T0, T5, T15, T30, T45, T60, Blank, and NCF60, were prepared. The first six incubation plates corresponded to reaction time points of 0, 5, 15, 30, 45, and 60 minutes, respectively. No test sample or control compound was added to the Blank plate.
The T0, T5, T15, T30, T45, and T60 plates were added with a 2 μL working solution of the test sample (10 mM of a solution of the compound to be tested in DMSO, diluted to 100 μM with 100% acetonitrile) and 100 μL of a S9 working solution (kidney S9 protein concentration of 1.0 mg/mL), and the Blank plate was only added with the S9 working solution. The above incubation plates were then placed in a 37° C. water bath for pre-incubation for about 10 minutes.
At the end of the pre-incubation, 98 μL of an auxiliary enzyme working solution was added to each sample well except the TO plate to start the reaction. […]

[5] = Pharmacokinetic analysis in rat plasma; assay type: in vivo, SD rats; settings: Sprague-Dawley (SD), rat, SD rats, single IV 3 mg/kg, plasma
Description: Test Example 5: Pharmacokinetic Analysis of the Compounds of the Present Invention in Rat Plasma
To test the pharmacokinetics of the compounds of the present invention in SD rats.
The pharmacokinetic characteristics of the compound after intravenous injection were tested in rats according to a standard protocol. The compound to be tested was formulated into a clear solution using 25 mM L-histidine (pH=7) in 10% sucrose as a vehicle. Two rats were given a single intravenous injection of 3 mg/kg of the compound to be tested. Whole blood was collected at time points of 0.083, 0.25, 0.5, 1, 2, 4, 8, and 24 hours after administration to get plasma. The concentration of the compound of the present invention and the concentration of its potential metabolite MMAE were analyzed by the LC-MS/MS method, and the pharmacokinetic parameters were calculated by Phoenix WinNonlin software.

In the case of CC[C@H](C)[C@@H]([C@@H](CC(=O)N1CCC[C@H]1[C@H](OC)[C@@H](C)C(=O)N[C@H](C)[C@@H](O)c1ccccc1)OC)N(C)C(=O)[C@@H](NC(=O)[C@H](C(C)C)N(C)C(=O)OCc1ccc(NC(=O)[C@H](CCCNC(N)=O)NC(=O)[C@@H](NC(=O)CCCC(=O)NCCC(=O)N(C)CC(=O)N(C)CC(=O)N(C)CC(=O)N(C)CC(=O)N(C)CC(=O)N(C)CC(=O)N(C)CC(=O)N(C)CC(=O)N(C)CC(=O)N(C)CC(=O)N[C@H]2CCCCNC(=O)C[C@@H](C(=O)N[C@H]3CSCCC(=O)N4CN5CN(C4)C(=O)CCSC(C)(C)[C@H](NC(=O)[C@@H](CC(=O)O)NC(=O)[C@H](Cc4cccc6ccccc46)NC(=O)[C@@H]4CCCN4C3=O)C(=O)N[C@@H](CCSC)C(=O)N[C@@H](CCCCNC(=N)N)C(=O)N[C@@H](CC(=O)O)C(=O)N[C@@H](Cc3c[nH]c4ccccc34)C(=O)N[C@@H](CO)C(=O)N[C@@H]([C@@H](C)O)C(=O)N3CCC[C@H]3C(=O)N3C[C@H](O)C[C@H]3C(=O)N[C@@H](Cc3c[nH]c4ccccc34)C(=O)N[C@H](C(N)=O)CSCCC5=O)NC(=O)CN(C)C2=O)C(C)C)cc1)C(C)C [Acetate salt of PDC_2] (I: [Sar][Sar][Sar][Sar][Sar][Sar][Sar][Sar][Sar][Sar]K[Sar]DCP[1Nal][dD][Pen]M[hArg]DWSTP[Hyp]WC-NH2 / II: V[Cit][PABC][NMeV]V[Dil][Dolaproine]-X1; lactam I:11-I:13; linker I:14-I:18-I:28 via TATA; linker I:N-II:N via X2), the half-life at 1 μM [1] is reported as > 217 min, the CLint scaled at 1 μM ([1]; read-out: CLint (liver)) is reported as < 23 mL/min/kg and the half-life at 2 μM [2] is reported as > 578 min. For the same compound, the half-life at 1 μM [3] was > 217 min, the CLint scaled at 1 μM ([3]; read-out: CLint (liver)) was < 29.9 mL/min/kg and the half-life at 1 μM [4] was > 145 min. The microsomal CLint at 1 μM [4] was < 9.6 µL/min/mg, the AUC(0-t) [5] was 4.4 µM·h and the C0 [5] was 6.9 µM. For the same compound, the clearance [5] was 2.7 mL/min/kg, the half-life [5] was 42 min and the Vd ([5]; read-out: Vdss) was 0.1 L/kg.
